Source: patent US20200392528A1, “IMPROVED PLANT EPSP SYNTHASES AND METHODS OF USE” (PIONEER HI-BRED INTERNATIONAL, INC., priority 2017, published 2020)
Where two headings read alike, the source gives them in different places.

Legend:
maize EPSPS [1] = test: substrate saturation kinetic analysis (kcat, KM PEP, KI glyphosate); assay type: biochemical; conditions: for kcat/Km*Ki: calculated with Km for PEP
Description: (§1) EPSPS activity was determined by quantifying the phosphate generated from the EPSPS reaction. Release of inorganic phosphate was coupled to its reaction with 2-amino-6-mercapto-7-methylpurine ribonucleoside (MESG), catalyzed by purine nucleoside phosphorylase, according to previously described protocols. To determine the kcat gly, enzyme preparations were normalized to 0.1 mg/ml and four- to six-microliter aliquots of normalized enzyme were added to the wells of a low UV-absorbing 96-well assay plate (Greiner UV-Star). Reactions were started with the addition of 2×147 μl of reaction mixture containing 25 mM Hepes, pH 7.0, 100 mM KCl, 5% ethylene glycol, 30 μM each of PEP and S3P, 0.15 mM MESG, 1.5 U/ml purine nucleoside phosphorylase (Sigma N8264) and 1 mM glyphosate. Absorbance was monitored at 4 sec intervals for 50 sec with a Spectramax plate reader (Molecular Devices). […] Division by the enzyme concentration (0.04 to 0.1 uM, depending on activity) yields “kcat gly” in units of min^−1.
(§2) Approximately 30 substitutions were designed into each library. Assuming an average incorporation rate of six substitutions per variant, the theoretical size of such libraries is ˜7×10^5. Libraries were screened using methods described previously and the enhanced method described in Example 2. The number of colony-forming units plated and screened was in the range of 50 to 100% of the theoretical size. Up to 200 colonies per library were picked for evaluation of the expressed variant. Proteins were purified as described previously in PCT/US2016/054399, incorporated herein by reference. Protein concentration was determined by measuring optical density at 280 nm. The extinction coefficient of native maize EPSPS (0.676 OD/mg/ml) was calculated by vNTI and used to convert OD280 to mg/ml. Kinetic parameters were determined as described in Example 1.
Combinatorial shuffling, maize native EPSPS—The mutations discovered were used to construct a combinatorial library designed to explore combinations of the desensitizing mutations in novel sequence contexts provided by the newly identified neutral mutations. Note that the amino acid position numbering in this Example 10 refers to the relative position of native maize EPSPS without the N-terminal Met. Therefore, G101A in this Example would be G102A in reference to SEQ ID NO: 1, wherein the maize EPSPS sequence has a Met added at the N-terminal. The diversity used was the same with the addition of G101A, T102 (IALGV) and P106(WA). In all, 43 substitutions at 29 positions were selected. The library was synthesized entirely from oligonucleotides, using the known technique of synthetic shuffling and was termed NatFS (Native, fully synthetic). The vector DNA of the library was transformed into the BL21(DE3) Tuner-AroA knockout strain and the cells were plated onto M9 medium containing either 30 mM glyphosate and 30 μM of the lac operon inducer isopropyl β-D-1-thiogalactopyranoside (IPTG) or 50 mM glyphosate and no IPTG. The 184 colonies that grew on either plate were picked and subjected to a second tier of screening in which EPSPS proteins were purified and activity measured at high (200 μM) and low (50 μM) PEP and S3P, with or without 10 μM glyphosate. Selected variants were subjected to substrate saturation kinetic analysis.

maize EPSPS [2] = test: kcat gly / kgly: enzyme turnover under application conditions (30 μM PEP and S3P, 1 mM glyphosate), phosphate release coupled to MESG; assay type: biochemical
Description: A more straight-forward, accurate and meaningful parameter is one in which one rate measurement is performed under presumed in vivo conditions, if known. To establish a set of conditions that mimic those under which the mutated enzyme needs to perform, the concentrations of PEP and S3P were set low (30 uM, subject to the sensitivity of assay conditions) to approach the presumed intracellular concentrations (˜15 uM, the approximate values of KM for both PEP and S3P). Glyphosate is included at 1 mM. The pH is set at 7.0 and ionic strength at 100 mM KCl, also to mimic known in vivo conditions. Ethylene glycol is present at 5% (v/v) to approximate the dielectric constant of intracellular fluid. The parameter is termed “enzyme turnover under application conditions”, which is herein shortened to “kcat gly”. The conventional formatting of the expression “kcat” is not used, to avoid this term being characterized as a standard kinetic constant.
as §1, §2
A customized parameter for predicting performance in the treated plant that would be a more accurate representation than kcat/Km*Ki. […] However, kcat/Km*Ki may be inadequate for predicting the reaction velocity under the conditions of the application (plants sprayed with glyphosate) because it may neglect concentrations of substrate and inhibitor, factors that are not intrinsic to the enzyme, but on which the reaction rate depends. Therefore, libraries derived from C1 on in FIG. 2 were evaluated with a single rate measurement designed to take all factors in the rate equation for competitive inhibition into account. […] Glyphosate was included at 1 mM, a concentration attainable in tissues, especially meristems, receiving metabolite flow from treated leaves. The pH (7.0), ionic strength (100 mM KCl) and co-solvent concentration (5% ethylene glycol) were also intended to mimic in vivo conditions. The unit for the parameter is reaction rate (μM·min^−1) per enzyme concentration (μM), or min^−1, describing the enzyme turnover under application conditions, which we abbreviate as “kgly”. […]

[3] = Table 2, KM for PEP, read-out: KM
[4] = Table 2, discrimination between glyphosate and PEP
[5] = apparent Km, PEP present at 10 times its Km, read-out: Km S3P
[6] = apparent Km, S3P present at 10 times its Km, read-out: Km PEP
[7] = Table 2, 30 μM PEP and S3P, 1 mM glyphosate, pH 7.0

B1: G102A: maize EPSPS with G102A mutation (G101A when numbered without N-terminal Met) (protein)
chain: MAGAEEIVLQPIKEISGTVKLPGSKSLSNRILLLAALSEGTTVVDNLLNSEDVHYMLGALRTLGLSVEADKAAKRAVVVGCGGKFPVEDAKEEVQLFLGNAATAMRPLTAAVTAAGGNATYVLDGVPRMRERPIGDLVVGLKQLGADVDCFLGTDCPPVRVNGIGGLPGGKVKLSGSISSQYLSALLMAAPLALGDVEIEIIDKLISIPYVEMTLRLMERFGVKAEHSDSWDRFYIKGGQKYKSPKNAYVEGDASSASYFLAGAAITGGTVTVEGCGTTSLQGDVKFAEVLEMMGAKVTWTETSVTVTGPPREPFGRKHLKAIDVNMNKMPDVAMTLAVVALFADGPTAIRDVASWRVKETERMVAIRTELTKLGASVEEGPDYCIITPPEKLNVTAIDTYDDHRMAMAFSLAACAEVPVTIRDPGCTRKTFPDYFDVLSTFVKN
modifications: Zea mays
Ki (maize EPSPS [1]; Ki for glyphosate): 1930 ± 40 µM | kcat (maize EPSPS [1]; Table 2): 612 min⁻¹ | kcat/KM*KI (maize EPSPS [1]; Table 2): 3176 | Km (maize EPSPS [1]; [3]): 315 µM | KI/KM (maize EPSPS [1]; [4]): 5.11 | Ki (maize EPSPS [1]; Table 2, inhibitor glyphosate): 1610 µM | Km (maize EPSPS [1]; [5]): 84 ± 2.5 µM | Km (maize EPSPS [1]; [6]): 333 ± 26 µM | kcat/Km*Ki (maize EPSPS [1]): 5780 | kcat (maize EPSPS [1]; maize EPSPS variants): 1000 ± 35 min⁻¹ | increase in Ki for glyphosate (maize EPSPS [1]; relative to native EPSPS): 30,00 fold | increase in Km for PEP (maize EPSPS [1]; relative to native EPSPS): 35 fold | KI/KM (maize EPSPS [1]; text b176): 5.1 | kcat gly (maize EPSPS [2]; [7]): 12.2 min⁻¹ | kgly (maize EPSPS [2]; enzyme turnover at 30 μM PEP and S3P, 1 mM glyphosate): 25.7 ± 0.2 min⁻¹

B2: Zm native: native maize EPSPS with added N-terminal Met, SEQ ID NO: 1, reference EPSPS sequence (protein)
chain: MAGAEEIVLQPIKEISGTVKLPGSKSLSNRILLLAALSEGTTVVDNLLNSEDVHYMLGALRTLGLSVEADKAAKRAVVVGCGGKFPVEDAKEEVQLFLGNAGTAMRPLTAAVTAAGGNATYVLDGVPRMRERPIGDLVVGLKQLGADVDCFLGTDCPPVRVNGIGGLPGGKVKLSGSISSQYLSALLMAAPLALGDVEIEIIDKLISIPYVEMTLRLMERFGVKAEHSDSWDRFYIKGGQKYKSPKNAYVEGDASSASYFLAGAAITGGTVTVEGCGTTSLQGDVKFAEVLEMMGAKVTWTETSVTVTGPPREPFGRKHLKAIDVNMNKMPDVAMTLAVVALFADGPTAIRDVASWRVKETERMVAIRTELTKLGASVEEGPDYCIITPPEKLNVTAIDTYDDHRMAMAFSLAACAEVPVTIRDPGCTRKTFPDYFDVLSTFVKN
modifications: Zea mays
kcat/KM*KI (maize EPSPS [1]): 11.8 | Ki (maize EPSPS [1]; Ki for glyphosate): 0.066 ± 0.003 µM | kcat (maize EPSPS [1]; Table 2): 1464 min⁻¹ | kcat/KM*KI (maize EPSPS [1]; Table 2): 11.8 | Km (maize EPSPS [1]; [3]): 15.7 µM | KI/KM (maize EPSPS [1]; [4]): 0.008 | Ki (maize EPSPS [1]; Table 2, inhibitor glyphosate): 0.13 µM | Km (maize EPSPS [1]; [5]): 13.2 ± 0.6 µM | Km (maize EPSPS [1]; [6]): 9.5 ± 0.3 µM | Km (maize EPSPS [1]; approximate value, read-out: Km for S3P): 10 to 15 µM | kcat/Km*Ki (maize EPSPS [1]): 11 | Ki (maize EPSPS [1]; glyphosate, text b235): 0.066 µM | kcat (maize EPSPS [1]; maize EPSPS variants): 1630 ± 14 min⁻¹ | Km (maize EPSPS [1]; read-out: Km for PEP): 10 to 15 µM | kcat gly (maize EPSPS [2]; [7]): 0.0 min⁻¹

B3: Zm D2: maize EPSPS variant, SEQ ID NO: 10 (protein)
chain: MRGWEEIVLQPIKEISGTVKLPGSKSLSNRILLLAALSEGTTVVDNLLNSEDVHYMLGALRTLGLSVEHDKAAKRAVVVGCGGRFPVEDAKGEVQLFCGNAATAMRPLTAAVTAAGGNATYVLDGVPRMRERPIGDLVVGLKQLGADVDCFLGTDCPPVRVNGIGGLPGGKVKLSGSISSQYLSALLMAAPLALGDVEIEIIDKLISLPYVEMTLRLMERFGVKAEHSDSWDRFYIKGGQKYESPKNAYVEGDASSASYFLAGAAITGGTVTVEGCGTTSLQGDVKFAEVLEMMGAKVTWTETSVTVTGPPREPFGRKHLKAIDVNMNKMPDAAMTLAVVALFADGPTAIRDVASWRVKETERMVAIRTELTKLGASVEEGPDYCIITPPPKLNVTAIDTYGDHRMAMAFSLAACAEVPVTIRDPGCTRKTFPDYFDVLSTFVKN
modifications: Zea mays
kcat (maize EPSPS [1]; Table 2): 364 min⁻¹ | kcat/KM*KI (maize EPSPS [1]; Table 2): 18100 | Km (maize EPSPS [1]; [3]): 20 µM | KI/KM (maize EPSPS [1]; [4]): 49.7 | Ki (maize EPSPS [1]; Table 2, inhibitor glyphosate): 993 µM | kcat gly (maize EPSPS [2]; [7]): 103 min⁻¹ | kcat gly (maize EPSPS [2]; Table 5, maize variants): 114 min⁻¹ | Zm/Os (maize EPSPS [2]; Table 5, ratio of kcat gly, maize variant to rice ortholog): 1.28

B4: Zm D2-64: maize EPSPS variant, SEQ ID NO: 7 (protein)
chain: MRKWEEIVLQPIKEISGTVKLPGSKSLSNRILLLAALSEGTTVVDNLLNSEDVLYMLGALRTLGLSVEHDKAAKRAVVVGCGGRFPVEDAKGEVQLFCGNAATAMRPLTAAVTAAGGNATYVLDGVPRMRERPIGDLVVGLKQLGADVDCFLGTDCPPVRVNGIGGLPGGKVKLSGSISSQYLSALLMAAPLALGDVEIEIIDKLISLPYVEMTLRLMERFGVKAEHSDSWDRFYIKGGQKYESPKNAYVEGDASSASYFLAGAAITGGTVTVEGCGTTSLQGDVKFAEVLEMMGAKVTWTETSVTVTGPPREPFGRKHLKAIDVNMNKMPDAAMTLAVVALFADGPTAIRDVASWRVKETERMVAICTELTKLGASVEEGPDYCIITPPPKLNVTAIDTYGDHRMAMAFSLAACAEVPVTIRDPGCTRKTFPDYFDVLSTFVKN
modifications: Zea mays
kcat (maize EPSPS [1]; Table 2): 478 min⁻¹ | kcat/KM*KI (maize EPSPS [1]; Table 2): 22900 | Km (maize EPSPS [1]; [3]): 19.6 µM | KI/KM (maize EPSPS [1]; [4]): 47.9 | Ki (maize EPSPS [1]; Table 2, inhibitor glyphosate): 938 µM | kcat gly (maize EPSPS [2]; [7]): 101 min⁻¹

B5: Zm D2-15: maize EPSPS variant, SEQ ID NO: 9 (protein)
chain: MRGWEEIVLQPIKEISGTVKLPGSKSLSNRILLLAALAEGTTVVDNLLNSEDVHYMLGALRTLGLSVEHDKAAKRAVVVGCGGRFPVEDAKEEVQLFCGNAATAMRPLTAAVTAAGGNATYVLDGVPRMRERPIGDLVVGLKQLGADVDCFLGTDCPPVRVNGIGGLPGGKVKLSGSISSQYLSALLMAAPLALGDVEIEIIDKLISLPYVEMTLRLMERFGVKAEHNDSWDRFYIKGGQKYESPKNAYVEGDASSASYFLAGAAITGGTVTVEGCGTTSLQGDVKFAEVLEMMGAKVTWTETSVTVSGPPREPFGRKHLKAIDVNMNKMPDAAMTLAVVALFADGPTAIRDVASWRVKETERMVAICTELTKLGASVEEGPDYCIITPPPKLNVTAIDTYGDHRMAMAFSLAACAEVPVTIRDPGCTRKTFPDYFDVLSTFVKN
modifications: Zea mays
kcat (maize EPSPS [1]; Table 2): 472 min⁻¹ | kcat/KM*KI (maize EPSPS [1]; Table 2): 36400 | Km (maize EPSPS [1]; [3]): 21.8 µM | KI/KM (maize EPSPS [1]; [4]): 77.1 | Ki (maize EPSPS [1]; Table 2, inhibitor glyphosate): 1680 µM | kcat gly (maize EPSPS [2]; [7]): 102 min⁻¹
